Assay results reported in publication PMC10325919, “A potential histone-chaperone activity for the MIER1 histone deacetylase complex” (Nucleic Acids Research, 2023).
Starred links: 1 amine or outer side, 2 acyl side, 3 side chain; linkers in the order of their positions; H or OH if unused. Non-standard residues stand in square brackets, D forms with d. No end group written: not given here. Lys(Me3) = C[N+](C)(C)CCCC[C@H](N)C(=O)O; Ethylenediamine = C(CN[*:2])N[*:1]; 5‑FAM = 5-carboxyfluorescein; GABA = NCCCC(=O)O

How the values were obtained:
[1] = target: Full length HDAC1(aa:1–482) (UniProt Q13547 1-482); assay: co-IP + SEC; FLAG-tagged bait transfected in HEK293F (with untagged partners where stated); lysate on anti-FLAG M2 resin, washed in 50 mM Tris/HCl pH 7.5, 50 mM potassium acetate, eluted by TEV protease, then Superdex S200 gel filtration; fractions on SDS-PAGE, bands identified by mass spectrometry; settings: partners not purified
[2] = target: T1, E. coli expressed BAHD1(aa:588–780) (UniProt Q8TBE0 588-780); assay: fluorescence polarisation; 5 nM 5-FAM labelled histone peptide, BAHD1(aa:588–780) 0–142 μM, 25 mM Tris/Cl pH 7.5, 50 mM NaCl, 15 min at 37°C; one-site binding model; settings: both partners purified
T1 construct: BAHD1, BAH domain, aa 588-780; also called BAH domain of BAHD1; source: E. coli expressed
T1 sequence (looked up): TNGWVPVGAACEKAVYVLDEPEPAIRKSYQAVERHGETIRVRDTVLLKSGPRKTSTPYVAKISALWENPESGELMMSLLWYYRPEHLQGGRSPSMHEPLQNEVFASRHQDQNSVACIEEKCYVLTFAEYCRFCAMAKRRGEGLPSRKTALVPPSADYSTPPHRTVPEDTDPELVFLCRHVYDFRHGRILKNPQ

Full length HDAC1(aa:1–482), sequence (Q13547 whole entry): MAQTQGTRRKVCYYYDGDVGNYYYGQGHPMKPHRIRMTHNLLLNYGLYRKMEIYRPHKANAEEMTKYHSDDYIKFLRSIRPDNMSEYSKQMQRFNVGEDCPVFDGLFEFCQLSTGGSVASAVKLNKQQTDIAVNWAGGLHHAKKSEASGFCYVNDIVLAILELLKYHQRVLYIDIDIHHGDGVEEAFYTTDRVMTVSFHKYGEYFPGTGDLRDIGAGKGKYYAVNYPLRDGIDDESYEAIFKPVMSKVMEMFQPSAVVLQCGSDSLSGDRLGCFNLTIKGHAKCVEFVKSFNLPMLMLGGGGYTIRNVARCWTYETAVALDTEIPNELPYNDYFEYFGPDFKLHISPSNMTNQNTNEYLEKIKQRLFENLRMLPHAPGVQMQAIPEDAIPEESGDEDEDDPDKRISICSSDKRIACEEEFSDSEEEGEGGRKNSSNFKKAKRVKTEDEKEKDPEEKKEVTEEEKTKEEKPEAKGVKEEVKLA

B1: FLAG-tagged MIER1 ELM2-SANT (aa:171–350) (domain or fragment, UniProt Q8N108 171-350, looked up)
chain: DYIPSEDWKKEIMVGSMFQAEIPVGICRYKENEKVYENDDQLLWDPEYLPEDKVIIFLKDASRRTGDEKGVEAIPEGSHIKDNEQALYELVKCNFDTEEALRRLRFNVKAAREELSVWTEEECRNFEQGLKAYGKDFHLIQANKVRTRSVGECVAFYYMWKKSERYDFFAQQTRFGKKKY
notes: The tag holds the protein on the anti-FLAG resin; it is cut off by TEV protease for elution, before gel filtration and SEC-MALS; also called isolated ELM2-SANT domain; source: HEK293F, co-transfected with HDAC1; anti-FLAG resin, TEV, Superdex S200; not shown: 10xHis-3xFLAG, N-terminal, kept
- binding result [1]: binds

B2: H3 16–35 K27me3 peptide (peptide)
peptide: PRKQLATKAAR[Lys(Me3)]SAPATGG-{Ethylenediamine-GABA-5‑FAM}
notes: Histone H3 tail peptide, named H3 16–35; also called H3 histone tail bearing a K27me3 modification; source: synthetic peptide, bought: Cambridge Research Biochemicals
- binding result [2]: binds
